Experiments:
[1] = target: c-Src SH2; assay: SH2 binding enrichment of the phosphorylated peptide, bacterial display (enrichment ratio); higher = better substrate or ligand; peptides without Tyr show the background
[2] = target: Grb2 SH2 (UniProt P62993); assay: as above
[3] = target: SHP2-C SH2; assay: as above
[4] = tested on: c-Src; assay: phosphorylation enrichment, bacterial display (enrichment ratio); higher = better substrate or ligand; peptides without Tyr show the background
[5] = target: Fyn (UniProt P06241); assay: as above
Chain of Fyn (P06241 whole entry, looked up): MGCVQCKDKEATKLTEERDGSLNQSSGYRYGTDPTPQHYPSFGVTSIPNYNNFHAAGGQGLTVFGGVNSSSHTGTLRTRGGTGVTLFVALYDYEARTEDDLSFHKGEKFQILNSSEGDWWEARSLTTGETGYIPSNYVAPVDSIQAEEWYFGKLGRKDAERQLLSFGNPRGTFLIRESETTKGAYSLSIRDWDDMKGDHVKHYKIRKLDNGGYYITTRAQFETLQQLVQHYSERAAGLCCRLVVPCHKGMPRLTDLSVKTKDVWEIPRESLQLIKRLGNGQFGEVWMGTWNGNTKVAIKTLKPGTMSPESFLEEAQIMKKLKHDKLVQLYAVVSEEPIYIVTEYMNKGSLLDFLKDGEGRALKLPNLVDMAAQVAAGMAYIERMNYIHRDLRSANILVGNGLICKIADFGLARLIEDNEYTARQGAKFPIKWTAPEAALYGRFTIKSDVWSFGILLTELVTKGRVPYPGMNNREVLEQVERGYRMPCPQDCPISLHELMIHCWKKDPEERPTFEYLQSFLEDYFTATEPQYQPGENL

[6] = tested on: Fer (mouse); assay: as above
[7] = target: MERTK (UniProt Q12866); assay: as above
Chain of MERTK (Q12866 whole entry, looked up): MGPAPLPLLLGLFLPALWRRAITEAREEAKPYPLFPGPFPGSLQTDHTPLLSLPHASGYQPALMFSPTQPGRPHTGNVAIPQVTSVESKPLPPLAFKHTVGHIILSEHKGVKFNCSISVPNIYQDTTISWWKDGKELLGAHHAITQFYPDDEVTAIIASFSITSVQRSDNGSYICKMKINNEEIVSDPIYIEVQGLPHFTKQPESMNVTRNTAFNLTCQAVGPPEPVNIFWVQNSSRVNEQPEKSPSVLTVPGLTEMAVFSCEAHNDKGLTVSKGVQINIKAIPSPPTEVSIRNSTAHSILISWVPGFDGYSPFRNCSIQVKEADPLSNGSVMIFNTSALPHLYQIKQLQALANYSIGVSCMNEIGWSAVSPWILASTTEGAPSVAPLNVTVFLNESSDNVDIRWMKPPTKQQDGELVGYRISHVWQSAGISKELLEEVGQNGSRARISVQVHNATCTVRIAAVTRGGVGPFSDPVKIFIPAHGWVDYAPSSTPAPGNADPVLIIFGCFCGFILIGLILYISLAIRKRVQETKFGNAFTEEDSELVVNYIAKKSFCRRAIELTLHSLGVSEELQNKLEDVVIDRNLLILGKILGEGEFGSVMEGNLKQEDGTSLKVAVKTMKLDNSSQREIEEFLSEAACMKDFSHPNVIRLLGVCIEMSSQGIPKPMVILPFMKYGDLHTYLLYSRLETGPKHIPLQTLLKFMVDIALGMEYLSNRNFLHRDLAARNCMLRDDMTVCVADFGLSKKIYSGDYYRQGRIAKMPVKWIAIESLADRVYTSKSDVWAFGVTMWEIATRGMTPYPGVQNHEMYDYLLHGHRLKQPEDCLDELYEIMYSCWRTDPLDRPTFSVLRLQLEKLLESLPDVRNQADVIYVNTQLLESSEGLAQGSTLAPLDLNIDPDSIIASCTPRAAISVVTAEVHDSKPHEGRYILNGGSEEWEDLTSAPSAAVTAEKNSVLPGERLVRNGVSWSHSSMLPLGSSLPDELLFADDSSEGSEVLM

[8] = target: FGFR1 (UniProt P11362); assay: as above
[9] = target: EPHB2 (UniProt P29323); assay: as above
[10] = target: Hck (UniProt P08631); assay: as above
Chain of Hck (P08631 whole entry, looked up): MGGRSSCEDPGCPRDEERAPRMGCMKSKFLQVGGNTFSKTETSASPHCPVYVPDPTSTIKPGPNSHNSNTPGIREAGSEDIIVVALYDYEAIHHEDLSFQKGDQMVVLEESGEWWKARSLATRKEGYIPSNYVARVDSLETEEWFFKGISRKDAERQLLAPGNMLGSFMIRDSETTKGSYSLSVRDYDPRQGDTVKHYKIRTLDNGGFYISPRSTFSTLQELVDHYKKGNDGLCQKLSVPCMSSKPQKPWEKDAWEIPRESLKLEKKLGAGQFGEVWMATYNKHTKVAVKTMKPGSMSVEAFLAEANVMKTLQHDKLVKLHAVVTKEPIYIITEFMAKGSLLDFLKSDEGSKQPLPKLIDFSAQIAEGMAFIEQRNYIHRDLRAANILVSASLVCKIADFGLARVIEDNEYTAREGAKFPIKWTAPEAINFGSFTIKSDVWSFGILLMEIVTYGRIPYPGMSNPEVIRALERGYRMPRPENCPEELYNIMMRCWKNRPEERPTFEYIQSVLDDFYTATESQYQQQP

[11] = target: FGFR3 (UniProt P22607); assay: as above
[12] = target: Jak2 (UniProt O60674); assay: as above
Chain of Jak2 (O60674 whole entry, looked up): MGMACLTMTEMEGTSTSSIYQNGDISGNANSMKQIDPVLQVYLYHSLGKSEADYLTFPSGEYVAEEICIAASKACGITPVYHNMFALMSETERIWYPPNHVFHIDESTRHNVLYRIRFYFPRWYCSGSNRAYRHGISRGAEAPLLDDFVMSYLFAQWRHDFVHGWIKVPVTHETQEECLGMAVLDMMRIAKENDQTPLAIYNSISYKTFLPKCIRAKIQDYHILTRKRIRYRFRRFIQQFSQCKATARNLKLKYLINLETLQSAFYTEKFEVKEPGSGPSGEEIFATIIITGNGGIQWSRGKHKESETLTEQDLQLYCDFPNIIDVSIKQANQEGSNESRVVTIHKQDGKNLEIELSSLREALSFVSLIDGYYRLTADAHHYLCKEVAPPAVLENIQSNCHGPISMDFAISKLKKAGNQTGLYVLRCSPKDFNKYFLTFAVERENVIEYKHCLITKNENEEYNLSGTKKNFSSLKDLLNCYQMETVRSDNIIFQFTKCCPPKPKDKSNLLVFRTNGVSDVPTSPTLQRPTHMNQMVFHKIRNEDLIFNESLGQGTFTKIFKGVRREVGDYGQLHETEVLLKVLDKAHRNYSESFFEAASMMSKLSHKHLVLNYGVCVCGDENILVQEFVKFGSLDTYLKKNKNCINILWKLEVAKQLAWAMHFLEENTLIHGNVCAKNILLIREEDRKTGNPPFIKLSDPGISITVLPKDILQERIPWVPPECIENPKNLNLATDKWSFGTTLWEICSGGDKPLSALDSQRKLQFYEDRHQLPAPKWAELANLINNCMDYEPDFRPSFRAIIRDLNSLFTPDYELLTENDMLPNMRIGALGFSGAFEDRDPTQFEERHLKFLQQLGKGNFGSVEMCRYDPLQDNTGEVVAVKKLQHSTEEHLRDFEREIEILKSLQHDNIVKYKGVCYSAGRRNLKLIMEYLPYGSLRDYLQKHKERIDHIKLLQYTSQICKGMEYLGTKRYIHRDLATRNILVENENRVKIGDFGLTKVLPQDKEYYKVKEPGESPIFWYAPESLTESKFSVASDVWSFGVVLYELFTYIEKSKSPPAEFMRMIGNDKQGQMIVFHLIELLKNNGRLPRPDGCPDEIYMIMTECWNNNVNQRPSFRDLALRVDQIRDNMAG

[13] = target: EPHB1 (UniProt P54762); assay: as above
Chain of EPHB1 (P54762 whole entry, looked up): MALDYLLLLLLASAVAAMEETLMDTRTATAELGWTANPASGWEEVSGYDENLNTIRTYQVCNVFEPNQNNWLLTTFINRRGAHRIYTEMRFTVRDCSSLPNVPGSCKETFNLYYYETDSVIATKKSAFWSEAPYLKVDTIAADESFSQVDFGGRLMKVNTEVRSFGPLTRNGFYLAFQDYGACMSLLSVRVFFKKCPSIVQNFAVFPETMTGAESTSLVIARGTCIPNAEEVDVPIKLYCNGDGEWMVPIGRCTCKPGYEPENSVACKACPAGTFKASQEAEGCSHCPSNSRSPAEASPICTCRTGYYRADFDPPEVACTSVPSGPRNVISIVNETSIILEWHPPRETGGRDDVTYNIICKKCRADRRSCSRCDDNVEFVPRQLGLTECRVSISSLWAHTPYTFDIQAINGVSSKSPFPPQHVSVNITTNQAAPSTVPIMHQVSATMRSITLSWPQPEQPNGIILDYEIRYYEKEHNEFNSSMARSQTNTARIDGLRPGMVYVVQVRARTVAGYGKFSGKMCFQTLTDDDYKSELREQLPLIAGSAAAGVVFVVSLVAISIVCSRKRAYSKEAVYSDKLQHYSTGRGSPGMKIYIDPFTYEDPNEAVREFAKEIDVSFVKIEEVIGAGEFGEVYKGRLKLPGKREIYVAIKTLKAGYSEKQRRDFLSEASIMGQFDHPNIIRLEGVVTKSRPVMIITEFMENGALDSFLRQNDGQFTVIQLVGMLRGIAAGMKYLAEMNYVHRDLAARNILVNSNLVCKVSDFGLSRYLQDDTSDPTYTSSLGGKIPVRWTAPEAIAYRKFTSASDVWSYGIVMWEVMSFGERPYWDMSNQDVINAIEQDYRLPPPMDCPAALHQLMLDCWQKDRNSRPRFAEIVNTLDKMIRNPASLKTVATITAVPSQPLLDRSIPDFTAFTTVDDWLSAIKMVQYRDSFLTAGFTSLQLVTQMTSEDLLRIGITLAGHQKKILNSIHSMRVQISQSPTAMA

[14] = tested on: AncSZ; assay: as above
[15] = tested on: c-Abl (mouse); assay: as above
[16] = target: Fes (UniProt P07332); assay: as above
Chain of Fes (P07332 whole entry, looked up, the tested form may be a part): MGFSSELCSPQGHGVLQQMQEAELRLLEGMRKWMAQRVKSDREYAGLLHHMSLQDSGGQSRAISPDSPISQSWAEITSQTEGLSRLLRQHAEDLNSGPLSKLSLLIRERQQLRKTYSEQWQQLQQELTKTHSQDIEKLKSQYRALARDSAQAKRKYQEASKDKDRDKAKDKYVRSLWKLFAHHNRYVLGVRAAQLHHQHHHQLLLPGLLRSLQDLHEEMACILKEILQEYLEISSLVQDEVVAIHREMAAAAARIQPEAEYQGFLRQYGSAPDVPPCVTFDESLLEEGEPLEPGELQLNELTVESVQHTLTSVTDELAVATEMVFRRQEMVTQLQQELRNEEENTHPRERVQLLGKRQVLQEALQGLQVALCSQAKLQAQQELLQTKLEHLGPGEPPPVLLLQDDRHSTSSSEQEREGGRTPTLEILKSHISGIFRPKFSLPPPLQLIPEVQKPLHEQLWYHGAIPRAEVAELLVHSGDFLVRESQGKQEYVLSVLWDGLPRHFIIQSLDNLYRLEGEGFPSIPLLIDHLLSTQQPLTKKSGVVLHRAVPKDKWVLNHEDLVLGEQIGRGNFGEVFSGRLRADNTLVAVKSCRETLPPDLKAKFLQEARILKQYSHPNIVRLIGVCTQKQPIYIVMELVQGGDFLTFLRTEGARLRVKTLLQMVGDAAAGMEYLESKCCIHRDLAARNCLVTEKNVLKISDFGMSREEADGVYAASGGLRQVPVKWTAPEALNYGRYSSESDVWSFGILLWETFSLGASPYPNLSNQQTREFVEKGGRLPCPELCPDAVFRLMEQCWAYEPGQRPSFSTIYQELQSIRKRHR
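Throughout, for SH2 binding enrichment of the phosphorylated peptide, bacterial display: peptide library displayed on the E. coli surface as eCPX fusions, selected cells deep-sequenced, score is each peptide's frequency after selection divided by its frequency in the input.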
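Throughout, for phosphorylation enrichment, bacterial display: 11-residue human phosphosite peptides and single-mutation variants displayed on the E. coli surface, counted by deep sequencing, each peptide's frequency after selection divided by its frequency in the unselected input library; frequency after pTyr selection over input frequency; kinase dosed for 20-30% of maximal phosphorylation in three min.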

| Sequence | SH2 binding enrichment [1] | SH2 binding enrichment [2] | SH2 binding enrichment [3] | phosphorylation enrichment [4] | phosphorylation enrichment [5] | phosphorylation enrichment [6] | phosphorylation enrichment [7] | phosphorylation enrichment [8] | phosphorylation enrichment [9] | phosphorylation enrichment [10] | phosphorylation enrichment [11] | phosphorylation enrichment [12] | phosphorylation enrichment [13] | phosphorylation enrichment [14] | phosphorylation enrichment [15] | phosphorylation enrichment [16] |
| --- | --- | --- | --- | --- | --- | --- | --- | --- | --- | --- | --- | --- | --- | --- | --- | --- |
| YGPPQYNMQYS [ERBB2IP_Y977_I979M] | 0.434 | 0.849 | 0.661 | 0.499 | 0.547 | 0.499 | 0.478 | 0.442 | 0.426 | 0.746 | 0.448 | 0.496 | 0.472 | 0.794 | 0.481 | 0.577 |
| RLLRGYNQSAF [HLA-C_Y137_D138N_YF] | 0.976 | 1.14 | 0.705 | 0.424 | 0.458 | 0.268 | 0.56 | 0.665 | 0.417 | 0.402 | 0.547 | 0.476 | 0.503 | 0.54 | 0.316 | 0.804 |
| RASGIYYVPKG [APBB1IP_Y340] | 0.955 | 1.1 | 0.767 | 8.24 | 15.1 | 1.82 | 19.8 | 5.75 | 9.84 | 15.1 | 5.79 | 4.09 | 16.6 | 1.39 | 43.9 | 1.24 |
| PVDTYYDSTRG [DYNC2H1_Y2231_M2227V] | 0.835 | 1.08 | 0.667 | 0.955 | 1.09 | 0.713 | 0.554 | 2.01 | 0.608 | 1.31 | 1.58 | 0.909 | 0.934 | 1.18 | 0.953 | 1.12 |
| LRFDVYGGENE [STOX1_Y610_E608D_YF] | 0.523 | 0.943 | 0.798 | 0.528 | 0.539 | 0.594 | 0.405 | 0.509 | 0.644 | 0.498 | 0.629 | 1.22 | 0.596 | 1.09 | 0.793 | 1.29 |
| VDTFWYKFLKR [EPM2A_Y86] | 0.602 | 0.957 | 1.04 | 0.371 | 0.406 | 0.525 | 0.432 | 0.553 | 0.629 | 0.467 | 0.716 | 1.05 | 0.657 | 1.21 | 0.78 | 1.18 |
| VTDGKYAFKPK [GTF2E2_Y137_I133T] | 0.452 | 0.783 | 0.847 | 0.361 | 0.355 | 0.31 | 0.361 | 0.411 | 0.262 | 0.459 | 0.419 | 0.521 | 0.299 | 0.491 | 0.575 | 0.64 |
| TLDTDYQMTKR [ADA_Y308] | 0.558 | 0.92 | 0.597 | 0.35 | 0.483 | 0.697 | 0.363 | 0.462 | 0.504 | 0.445 | 0.584 | 0.632 | 0.45 | 0.77 | 0.499 | 0.781 |

Now from value to sequence, other results behind:

| SH2 binding enrichment [1] | SH2 binding enrichment [2] | SH2 binding enrichment [3] | Sequence | phosphorylation enrichment [4] | phosphorylation enrichment [5] | phosphorylation enrichment [6] | phosphorylation enrichment [7] | phosphorylation enrichment [8] | phosphorylation enrichment [9] | phosphorylation enrichment [10] | phosphorylation enrichment [11] | phosphorylation enrichment [12] | phosphorylation enrichment [13] | phosphorylation enrichment [14] | phosphorylation enrichment [15] | phosphorylation enrichment [16] |
| --- | --- | --- | --- | --- | --- | --- | --- | --- | --- | --- | --- | --- | --- | --- | --- | --- |
| 0.716 | 1.34 | 1.14 | MTFVFYRENLR [NLRP14_Y443_YF] | 0.288 | 0.48 | 0.576 | 0.369 | 0.562 | 0.719 | 0.525 | 0.927 | 1.13 | 0.585 | 1.42 | 0.668 | 1.34 |
| 0.849 | 1.02 | 0.786 | LGSNGCKKLLK [SEPSECS_Y334_Y334C] | 0.663 | 0.567 | 0.472 | 0.866 | 0.661 | 1.04 | 0.768 | 0.868 | 1.06 | 0.611 | 0.823 | 1.06 | 0.826 |
| 0.57 | 0.821 | 0.683 | AAILGYCRGEA [XPC_Y669] | 0.372 | 0.438 | 0.419 | 0.413 | 0.541 | 0.45 | 0.467 | 0.556 | 0.786 | 0.567 | 0.789 | 0.718 | 1.02 |
| 1.9 | 1.07 | 1.39 | LISVSYDDWDY [GRIN2A_Y281] | 0.652 | 0.773 | 4.25 | 0.691 | 0.901 | 0.827 | 0.666 | 1.05 | 1.35 | 0.813 | 2.2 | 1.01 | 1.92 |
| 0.362 | 0.85 | 1.12 | LEGKEYRMSGE [KRT3_Y511_E509K] | 0.415 | 0.456 | 0.455 | 0.439 | 0.432 | 0.333 | 0.409 | 0.618 | 0.923 | 0.434 | 0.73 | 0.583 | 0.985 |
| 0.457 | 0.753 | 0.557 | ASPALYRLDLD [TRIL_Y352] | 1.84 | 0.922 | 0.484 | 0.484 | 0.552 | 0.596 | 0.617 | 0.688 | 0.873 | 0.818 | 0.798 | 0.763 | 1.16 |
| 0.951 | 0.947 | 0.749 | VFLGAYDCFLP [SLC22A5_Y486_R488C_YF] | 4.75 | 5.7 | 4.68 | 5.67 | 0.631 | 4.47 | 3.27 | 0.757 | 1.17 | 2.6 | 1.6 | 0.953 | 1.28 |
| 0.465 | 0.816 | 0.807 | HTVEDYQAIVD [CCT7_Y263] | 0.836 | 0.773 | 0.85 | 0.734 | 0.818 | 0.936 | 0.794 | 1.06 | 1.67 | 0.882 | 1.73 | 1.68 | 2.21 |
| 13.6 | 1.15 | 0.893 | YRGYSYDDIPD [TMEM230_Y112] | 0.463 | 0.442 | 0.439 | 0.393 | 0.531 | 0.485 | 0.51 | 0.662 | 0.973 | 0.483 | 0.973 | 0.762 | 0.964 |

Source: the supplement of paper PMC10065799, “High-throughput profiling of sequence recognition by tyrosine kinases and SH2 domains using bacterial peptide display” (eLife, 2023)
